The values below come from patent publication US20100172907A1 (Hoffmann-La Roche, published 2010).

The target in one assay is T1, Aβ (1-42) peptide (human).
T1 construct: also called Aβ1-42 fibers; Aβ4
Put plainly: SPR, immobilized fibers.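 Also: biacore SPR using in vitro grown Aβ1-40 or Aβ1-42 fibrils immobilized on the chip with Fab analytes, KD from koff/kon fits or equilibrium isotherms based on total Fab concentration.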

In a further assay the target is T2, human Aβ (1-40) peptide (human).
T2 construct: also called Aβ1-40 fibers
Put plainly: SPR, immobilized fibers.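 Also: biacore SPR using in vitro grown Aβ1-40 or Aβ1-42 fibrils immobilized on the chip with Fab analytes, KD from koff/kon fits or equilibrium isotherms based on total Fab concentration.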

Numbering of substitutions follows the chain as printed.

B1: MS-Roche #8.2.H4 Fab (Fab, V domains shown)
VH: QVQLVESGGGLVQPGGSLRLSCAASGFTFSSYAMSWVRQAPGKGLEWVSATSVKGKTYYADSVKGRFTISRDNSKNTLYLQMNSLRAEDTAVYYCARLLSRGYNGYYHKFDVWGQGTLVTVSS
VL: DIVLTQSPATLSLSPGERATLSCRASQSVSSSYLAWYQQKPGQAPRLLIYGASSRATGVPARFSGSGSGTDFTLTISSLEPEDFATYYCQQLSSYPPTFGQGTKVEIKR
notes: H-CDR2 printed with 16 residues
Turning to B1, the Kd with Aβ (1-42) peptide came to 11.9 nM; in the assay with human Aβ (1-40) peptide it was 12.1 nM.

B2: MS-Roche #3.4.H13 Fab (Fab, V domains shown)
VH: QVQLVESGGGLVQPGGSLRLSCAASGFTFSSYAMSWVRQAPGKGLEWVSAISEQGRNIYYADSVKGRFTISRDNSKNTLYLQMNSLRAEDTAVYYCARLTHYARYYRYFDVWGQGTLVTVSS
VL: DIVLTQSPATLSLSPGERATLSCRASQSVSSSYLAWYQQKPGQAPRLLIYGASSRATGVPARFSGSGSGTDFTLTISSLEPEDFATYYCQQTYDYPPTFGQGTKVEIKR
Turning to B2, the Kd amounted to 18.8 nM with Aβ (1-42) peptide and 32.3 nM with human Aβ (1-40) peptide.

B3: MS-Roche #3.4.H14 Fab (Fab, V domains shown)
VH: B2 VH with Q54S, R56Q, N57Y, I58K
VL: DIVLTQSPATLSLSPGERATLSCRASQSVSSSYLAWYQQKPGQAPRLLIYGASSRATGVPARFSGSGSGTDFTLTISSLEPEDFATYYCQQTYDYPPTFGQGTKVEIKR
With B3, the Kd came out at 16.8 nM with Aβ (1-42) peptide and 13.3 nM with human Aβ (1-40) peptide.

B4: MS-Roche #3.4.L9 Fab (Fab, V domains shown)
VH: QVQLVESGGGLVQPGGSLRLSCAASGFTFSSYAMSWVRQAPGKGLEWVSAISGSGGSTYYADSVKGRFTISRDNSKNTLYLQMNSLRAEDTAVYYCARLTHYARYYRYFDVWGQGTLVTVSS
VL: DIVLTQSPATLSLSPGERATLSCRASRRIHVYYLAWYQQKPGQAPRLLIYGASSRATGVPARFSGSGSGTDFTLTISSLEPEDFATYYCQQTYDYPPTFGQGTKVEIKR
In the case of B4, the figures for the Kd with Aβ (1-42) peptide and with human Aβ (1-40) peptide were 9.1 nM and 16.3 nM, respectively.

B5: MS-Roche #7.2.H6 Fab (Fab, V domains shown)
VH: QVQLVESGGGLVQPGGSLRLSCAASGFTFSSYAMSWVRQAPGKGLEWVSAINARGNRTYYADSVKGRFTISRDNSKNTLYLQMNSLRAEDTAVYYCARGKGNTHKPYGYVRYFDVWGQGTLVTVSS
VL: B4 VL with R27Q, R28S, I29V, H30S, V31S, Y32S, T92I, D94S, Y95F, P97H
Consider B5, for which the dissociation constant Kd with human Aβ (1-40) peptide came out at 1 nM. This lies in the single-digit nanomolar range.

B6: MS-Roche #7.12.L4 Fab (Fab, V domains shown)
VH: B5 VH with A33G, A50N, N52S, A53G, R54S, N56S, R57S
VL: DIVLTQSPATLSLSPGERATLSCRASQRLKRSYLAWYQQKPGQAPRLLISGSSNRATGVPARFSGSGSGTDFTLTISSLEPEDFAVYYCLQLYNIPNTFGQGTKVEIKR
With B6, the Kd with Aβ (1-42) peptide amounted to 0.6 nM; with human Aβ (1-40) peptide, 2 nM.

B7: MS-Roche #7.12.H1 Fab (Fab, V domains shown)
VH: B5 VH with A33G, A50N, A53G, R54N, T58K
VL: B6 VL with R28Y, L29V, K30F, S32R
On to B7, for which the figures for the dissociation constant (Kd) with Aβ (1-42) peptide and with human Aβ (1-40) peptide were 0.8 nM and 0.6 nM, respectively.

B8: MS-Roche #7.12.L2 Fab (Fab, V domains shown)
VH: B5 VH with A33G, A50N, N52S, A53G, R54S, N56S, R57S
VL: B6 VL with L29F, K30F, R31Y, S32K
In the case of B8, the Kd is 5.4 nM with Aβ (1-42) peptide and 4 nM with human Aβ (1-40) peptide.

B9: MS-Roche #7.12.L3 Fab (Fab, V domains shown)
VH: B5 VH with A33G, A50N, N52S, A53G, R54S, N56S, R57S
VL: B6 VL with R28F, L29V, K30R, S32G, Y33F
Take B9: the Kd with Aβ (1-42) peptide worked out at 0.9 nM; with human Aβ (1-40) peptide, 0.8 nM.

B10: MS-Roche #7.9.L1 Fab (Fab, V domains shown)
VH: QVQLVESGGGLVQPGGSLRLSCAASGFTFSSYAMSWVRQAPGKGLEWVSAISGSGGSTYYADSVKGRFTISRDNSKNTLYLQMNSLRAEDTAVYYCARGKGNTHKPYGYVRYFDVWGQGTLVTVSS
VL: B6 VL with K30S, R31P, S32R, S50Y, S52A, N54S, V86T, L92I, I95M, N97I
Regarding B10, the Kd amounted to 1.1 nM in the assay with Aβ (1-42) peptide and 1 nM with human Aβ (1-40) peptide.

B11: MS-Roche #7.3.L1 Fab (Fab, V domains shown)
VH: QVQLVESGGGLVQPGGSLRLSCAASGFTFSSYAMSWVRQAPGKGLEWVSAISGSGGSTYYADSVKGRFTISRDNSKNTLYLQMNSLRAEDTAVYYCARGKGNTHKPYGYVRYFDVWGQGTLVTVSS
VL: DIVLTQSPATLSLSPGERATLSCRASQYLHYGYLAWYQQKPGQAPRLLIYGASSRATGVPARFSGSGSGTDFTLTISSLEPEDFAVYYCHQVYSHPFTFGQGTKVEIKR
B11: the Kd with Aβ (1-42) peptide turned out to be 6 nM; with human Aβ (1-40) peptide, 4.5 nM.

B12: MS-Roche #7.2.H7 Fab (Fab, V domains shown)
VH: B5 VH with A53S, N56S, R57D, Y59H
VL: B11 VL with Y28S, L29V, H30S, Y31S, G32S, V86T, H90Q, V92I, H95F, F97H
For B12, the results for the Kd with Aβ (1-42) peptide and in the assay with human Aβ (1-40) peptide were 8.1 nM and 15.5 nM, respectively.

B13: MS-Roche #7.9.L2 Fab (Fab, V domains shown)
VH: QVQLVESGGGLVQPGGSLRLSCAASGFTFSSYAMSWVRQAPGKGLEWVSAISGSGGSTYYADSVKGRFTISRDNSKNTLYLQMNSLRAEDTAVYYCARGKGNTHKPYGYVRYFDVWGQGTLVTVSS
VL: B11 VL with Y31K, G32R, V86T, H90L, V92I, S94N, H95M, F97I
As for B13, the Kd with Aβ (1-42) peptide worked out at 0.5 nM; with human Aβ (1-40) peptide, 1 nM.

B14: MS-Roche #7.11.H5 Fab (Fab, V domains shown)
VH: B5 VH with R54H, N56Q
VL: B11 VL with Y28S, L29V, H30S, Y31S, G32S, V86T, H90Q, H95P, F97H
As to B14, the Kd with Aβ (1-42) peptide was 1.7 nM; with human Aβ (1-40) peptide, 3.4 nM.

B15: MS-Roche #7.2.L2 Fab (Fab, V domains shown)
VH: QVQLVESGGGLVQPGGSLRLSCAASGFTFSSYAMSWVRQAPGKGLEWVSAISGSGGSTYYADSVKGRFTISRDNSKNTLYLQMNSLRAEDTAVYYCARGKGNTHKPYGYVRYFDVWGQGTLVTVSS
VL: B11 VL with L29I, H30S, Y31F, G32R, V86T, H90Q, V92I, H95F, F97H
On to B15, for which the dissociation constant (Kd) with Aβ (1-42) peptide was determined as 4 nM; with human Aβ (1-40) peptide, 5.6 nM.

B16: MS-Roche #7.11.H3 Fab (Fab, V domains shown)
VH: B5 VH with A50G, R54N
VL: B11 VL with Y28S, L29V, H30S, Y31S, G32S, V86T, H90Q, H95P, F97H
Turning to B16, the figures for the Kd with Aβ (1-42) peptide and with human Aβ (1-40) peptide were 4.4 nM and 6.6 nM, respectively.

B17: MS-Roche #7.9.H8 Fab (Fab, V domains shown)
VH: B5 VH with R54S, N56S, R57K, T58I
VL: DIVLTQSPATLSLSPGERATLSCRASQSVSSSYLAWYQQKPGQAPRLLIYGASSRATGVPARFSGSGSGTDFTLTISSLEPEDFATYYCLQIYNMPITFGQGTKVEIKR
notes: assembled
Turning to B17, the values for the Kd with Aβ (1-42) peptide and with human Aβ (1-40) peptide were 0.7 nM and 0.8 nM, respectively.

B18: MS-Roche #7.2.L4 Fab (Fab, V domains shown)
VH: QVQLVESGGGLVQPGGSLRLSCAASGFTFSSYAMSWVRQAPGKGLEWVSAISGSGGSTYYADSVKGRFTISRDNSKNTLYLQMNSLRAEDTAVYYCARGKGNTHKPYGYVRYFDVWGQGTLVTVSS
VL: B17 VL with S28F, V29I, S30R, S31R, L90Q, N94S, M95F, I97H
In the case of B18, the Kd with Aβ (1-42) peptide and with human Aβ (1-40) peptide was 1.1 nM each time.

B19: MS-Roche #7.11.H4 Fab (Fab, V domains shown)
VH: B5 VH with R54N, N56Y, R57K
VL: B17 VL with L90Q, I92V, N94S, M95P, I97H
For B19, the values for the Kd with Aβ (1-42) peptide and in the assay with human Aβ (1-40) peptide were 1.7 nM and 1 nM, respectively.

B20: MS-Roche #7.2.H8 Fab (Fab, V domains shown)
VH: B5 VH with R54S, N56H, R57K
VL: B17 VL with L90Q, N94S, M95F, I97H
In the case of B20, the Kd worked out at 2.1 nM with Aβ (1-42) peptide and 1.5 nM with human Aβ (1-40) peptide.

B21: MS-Roche #7.9.H9 Fab (Fab, V domains shown)
VH: B5 VH with A53G, R54K, R57K, T58K
VL: B17 VL
notes: assembled
For the molecule B21, the equilibrium dissociation constant (Kd) with Aβ (1-42) peptide and with human Aβ (1-40) peptide was 0.9 nM each time.

B22: MS-Roche #7.3.H1 Fab (Fab, V domains shown)
VH: B5 VH with N52S, R54I, G55S, R57K
VL: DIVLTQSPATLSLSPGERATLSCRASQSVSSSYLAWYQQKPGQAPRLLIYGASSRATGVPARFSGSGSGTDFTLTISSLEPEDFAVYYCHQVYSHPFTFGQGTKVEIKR
On to B22, for which the Kd was determined as 11.2 nM with Aβ (1-42) peptide and 8 nM in the assay with human Aβ (1-40) peptide.

B23: MS-Roche #7.9.H7 Fab (Fab, V domains shown)
VH: B5 VH with R54S, N56T
VL: B17 VL
notes: also called MSR 7.9H7
Turning to B23, the dissociation constant Kd with Aβ (1-42) peptide worked out at 0.9 nM; in the assay with human Aβ (1-40) peptide it was 1 nM.

B24: MS-Roche #7.11.L1 Fab (Fab, V domains shown)
VH: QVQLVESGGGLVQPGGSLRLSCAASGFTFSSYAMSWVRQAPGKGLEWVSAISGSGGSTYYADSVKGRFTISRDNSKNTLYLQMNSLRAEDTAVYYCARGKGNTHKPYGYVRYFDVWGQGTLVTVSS
VL: B4 VL with R27Q, H30L, V31R, Y32I, T92V, D94S, Y95P, P97H
Consider B24, for which the Kd in the assay with Aβ (1-42) peptide came out at 1.2 nM; in the assay with human Aβ (1-40) peptide, 1.1 nM.

B25: MS-Roche #7.9.H5 Fab (Fab, V domains shown)
VH: B5 VH with A53H, R54A, R57K, T58K
VL: B17 VL
notes: assembled
B25: the results for the Kd with Aβ (1-42) peptide and with human Aβ (1-40) peptide were 1.8 nM and 1.7 nM, respectively.
